The source of these data is article PMC10786891, “Massively parallel profiling of RNA-targeting CRISPR-Cas13d”.

As usually defined, the Kd is a measure of binding affinity in units of concentration. Read a high Kd as a looser complex.

Numbering of substitutions follows the chain as printed. In names and notes the source's numbering stands.

The labels stand for the following.
T1: EsCas13d, nuclease-dead (Eubacterium siraeum, UniProt B0MS50, R295A;H300A;R849A;H854A)
T1 sequence: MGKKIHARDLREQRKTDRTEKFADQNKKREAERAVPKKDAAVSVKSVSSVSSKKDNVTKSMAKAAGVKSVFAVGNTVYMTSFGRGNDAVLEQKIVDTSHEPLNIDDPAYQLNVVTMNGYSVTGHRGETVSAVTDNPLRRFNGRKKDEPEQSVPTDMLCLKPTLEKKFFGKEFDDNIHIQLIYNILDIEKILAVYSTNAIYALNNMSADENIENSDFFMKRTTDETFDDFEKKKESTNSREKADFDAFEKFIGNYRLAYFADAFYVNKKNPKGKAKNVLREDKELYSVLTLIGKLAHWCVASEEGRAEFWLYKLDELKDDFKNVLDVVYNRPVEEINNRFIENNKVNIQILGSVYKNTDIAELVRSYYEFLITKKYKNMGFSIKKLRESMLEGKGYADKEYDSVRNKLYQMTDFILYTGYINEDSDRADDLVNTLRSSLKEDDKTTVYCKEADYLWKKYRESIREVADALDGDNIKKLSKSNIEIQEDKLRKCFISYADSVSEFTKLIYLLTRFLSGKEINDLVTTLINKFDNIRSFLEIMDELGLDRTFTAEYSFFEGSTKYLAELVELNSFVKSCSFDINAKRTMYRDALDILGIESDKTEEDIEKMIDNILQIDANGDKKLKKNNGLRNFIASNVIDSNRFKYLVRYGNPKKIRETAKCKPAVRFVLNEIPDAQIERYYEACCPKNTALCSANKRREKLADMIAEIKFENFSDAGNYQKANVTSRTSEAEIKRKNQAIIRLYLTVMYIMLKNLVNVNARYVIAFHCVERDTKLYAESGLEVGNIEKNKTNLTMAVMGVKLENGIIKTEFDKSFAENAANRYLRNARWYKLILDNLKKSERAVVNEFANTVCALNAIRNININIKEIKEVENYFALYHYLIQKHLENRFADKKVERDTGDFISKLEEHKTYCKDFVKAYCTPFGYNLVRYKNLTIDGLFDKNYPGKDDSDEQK

B1: target 1 C4G,U10C (mixed)
RNA 1: CACCCGUGCAAAAAUGCAGGGGUCUAAAACUGAGCGGAUAACCUCUCUAUGG
RNA 2: GGGAAUGGAUCCACAUCUACGAAUUCGUACCAUAGAGAGGUCAUCCGGUCACCGAGAUCGGAAGAGCACACGU
B2: target 1 A1U,G5A (mixed)
RNA 1: B1 RNA 1
RNA 2: B1 RNA 2 with C42U, G47A, G48C, A51U
B3: target 1 G15U,A16C (mixed)
RNA 1: B1 RNA 1
RNA 2: B1 RNA 2 with A36C, G37U, C42U, G48C
B4: target 1 insC 3' of 13,insU 3' of 6 (mixed)
RNA 1: B1 RNA 1
RNA 2: GGGAAUGGAUCCACAUCUACGAAUUCGUACCAUAGAGAGCGUUAUCCUGCUCACCGAGAUCGGAAGAGCACACGU
B5: target 1 insC 3' of 15,insU 3' of 7 (mixed)
RNA 1: B1 RNA 1
RNA 2: B4 RNA 2 with A38C, G39A, C40G, C47U, U48C
B6: target 1 C7A,A20G (mixed)
RNA 1: B1 RNA 1
RNA 2: B1 RNA 2 with A32G, C42U, C45A, G48C
B7: target 1 insC 3' of 1 (mixed)
RNA 1: B1 RNA 1
RNA 2: GGGAAUGGAUCCACAUCUACGAAUUCGUACCAUAGAGAGGUUAUCCGCUCACCCGAGAUCGGAAGAGCACACGU
B8: target 1 C6A,U10A (mixed)
RNA 1: B1 RNA 1
RNA 2: B1 RNA 2 with C42A, C46A, G48C
B9: target 1 del16 (mixed)
RNA 1: B1 RNA 1
RNA 2: GGGAAUGGAUCCACAUCUACGAAUUCGUACCAUAGGAGGUUAUCCGCUCACCGAGAUCGGAAGAGCACACGU
B10: target 1 U8G,G15A (mixed)
RNA 1: B1 RNA 1
RNA 2: B1 RNA 2 with G37A, C42U, U44G, G48C
B11: target 1 insG 3' of 9,insC 3' of 8 (mixed)
RNA 1: B1 RNA 1
RNA 2: B4 RNA 2 with C40G, G41U, U43A, A44G, U48C
B12: target 1 U10A,G15A (mixed)
RNA 1: B1 RNA 1
RNA 2: B1 RNA 2 with G37A, C42A, G48C
B13: target 1 U19C,A20G (mixed)
RNA 1: B1 RNA 1
RNA 2: B1 RNA 2 with A32G, U33C, C42U, G48C
B14: target 1 U8G,A14C (mixed)
RNA 1: B1 RNA 1
RNA 2: B1 RNA 2 with A38C, C42U, U44G, G48C
B15: target 1 G5U,C22A (mixed)
RNA 1: B1 RNA 1
RNA 2: B1 RNA 2 with C30A, C42U, G47U, G48C
B16: target 1 insG 3' of 9,insU 3' of 7 (mixed)
RNA 1: B1 RNA 1
RNA 2: B4 RNA 2 with C40G, G41U, U43A, A44G, C47U, U48C
B17: target 1 G5A (mixed)
RNA 1: B1 RNA 1
RNA 2: B1 RNA 2 with C42U, G47A, G48C
B18: target 1 insA 3' of 6,insG 3' of 3 (mixed)
RNA 1: B1 RNA 1
RNA 2: GGGAAUGGAUCCACAUCUACGAAUUCGUACCAUAGAGAGGUUAUCCAGCUGCACCGAGAUCGGAAGAGCACACGU
B19: target 1 insC 3' of 14,insA 3' of 4 (mixed)
RNA 1: B1 RNA 1
RNA 2: B4 RNA 2 with G39C, C40G, U48G, G49C, C50A
B20: target 1 G15U,G17U (mixed)
RNA 1: B1 RNA 1
RNA 2: B1 RNA 2 with G35U, G37U, C42U, G48C
B21: target 1 G13A,A18U (mixed)
RNA 1: B1 RNA 1
RNA 2: B1 RNA 2 with A34U, G39A, C42U, G48C
B22: target 1 insG 3' of 18,insA 3' of 6 (mixed)
RNA 1: B1 RNA 1
RNA 2: B4 RNA 2 with A36G, G37A, A38G, G39A, C40G, U48A
B23: target 1 G13A,A16U (mixed)
RNA 1: B1 RNA 1
RNA 2: B1 RNA 2 with A36U, G39A, C42U, G48C
B24: target 1 A1C,G5A (mixed)
RNA 1: B1 RNA 1
RNA 2: B1 RNA 2 with C42U, G47A, G48C, A51C
B25: target 1 insG 3' of 11,insG 3' of 4 (mixed)
RNA 1: B1 RNA 1
RNA 2: B4 RNA 2 with C40G, G41U, U42G, U48G, G49C, C50G
B26: target 1 insU 3' of 21,insA 3' of 4 (mixed)
RNA 1: B1 RNA 1
RNA 2: GGGAAUGGAUCCACAUCUACGAAUUCGUACCUAUAGAGAGGUUAUCCGCAUCACCGAGAUCGGAAGAGCACACGU
B27: target 1 insG 3' of 22,insA 3' of 17 (mixed)
RNA 1: B1 RNA 1
RNA 2: GGGAAUGGAUCCACAUCUACGAAUUCGUACGCAUAGAAGAGGUUAUCCGCUCACCGAGAUCGGAAGAGCACACGU
B28: target 1 G17U,A20G (mixed)
RNA 1: B1 RNA 1
RNA 2: B1 RNA 2 with A32G, G35U, C42U, G48C
B29: target 1 U19A,A20G (mixed)
RNA 1: B1 RNA 1
RNA 2: B1 RNA 2 with A32G, U33A, C42U, G48C
B30: target 1 insG 3' of 6,insG 3' of 2 (mixed)
RNA 1: B1 RNA 1
RNA 2: B18 RNA 2 with A47G, G51C, C52G
B31: target 1 complement block 1-10 (mixed)
RNA 1: B1 RNA 1
RNA 2: B1 RNA 2 with C42A, A43U, U44A, C45G, C46G, G47C, U49A, C50G, A51U
B32: target 1 complement block 2-10 (mixed)
RNA 1: B1 RNA 1
RNA 2: B1 RNA 2 with C42A, A43U, U44A, C45G, C46G, G47C, U49A, C50G
B33: target 1 C6U,C21U (mixed)
RNA 1: B1 RNA 1
RNA 2: B1 RNA 2 with C31U, C42U, C46U, G48C

This series concerns the target T1, EsCas13d, nuclease-dead. The experiment in a line: crRNA (strand 1, pre-loaded); Mg2+; 40 mM Tris-HCl pH 7.5, 150 mM NaCl, 6 mM MgCl2, 1 mM DTT, 0.1% Tween-20, 0.2 mg/ml BSA; 25 C; 10 min per concentration, then washed. The note with it: tags: His6-TwinStrep-SUMO cleaved; N-terminal SNAP kept (SNAP-Surface 488); label: 3' end held by stalled T7 RNA polymerase.
In the case of B1, the Kd was 5.15 ± 0.3 nM.

As for B2, the equilibrium dissociation constant (Kd) was 34 ± 6 nM. Then B3, with 83 ± 16 nM; and B4, with 11 ± 0.9 nM. For the molecule B5, the affinity, expressed as Kd, was 17.1 ± 0.9 nM. This Kd is about 1.6-fold higher than that of the molecule before.

Regarding B6, the Kd was 45 ± 13 nM. Then B7, with 9.1 ± 0.6 nM; and B8, with 7.7 ± 0.4 nM.

As for B9, the Kd was determined as 46 ± 4 nM. Against the preceding molecule, the Kd is about 6-fold higher. B10: binding was characterised by a dissociation constant (Kd) of 56 ± 6 nM. B11 came in with a Kd of 29.5 ± 2.9 nM. Molecule B12 gave a Kd of 31 ± 3 nM.

With B13, the Kd was found to be 55 ± 22 nM. With B14, the Kd is around 80 nM. Then B15, with 54 ± 14 nM; and B16, with 16.4 ± 0.8 nM; and B17, with 51 ± 8 nM. B18 gave a Kd of 13.1 ± 0.5 nM. Compared with the last molecule, the Kd is about 3.9-fold lower. Then B19, with 24.3 ± 1.9 nM. Then B20, with 86 ± 21 nM; and B21, with 22.5 ± 2 nM. Then B22, with 73 ± 25 nM; and B23, with 43 ± 6 nM. B24 came in with a Kd of 26 ± 9 nM. Then B25, with 54 ± 13 nM.

B26: the affinity, expressed as Kd, was 15.6 ± 1.3 nM. As for B27, the Kd was 71 ± 24 nM. The molecule B28 showed a Kd of 40 ± 6 nM. Against the preceding molecule, the Kd is about 1.8-fold lower.

The molecule B29 returned a Kd of 56 ± 7 nM. The figure for B30 is 10.4 ± 1.1 nM; for B31 it is 16.6 ± 0.6 nM. Then B32, with 13.3 ± 0.6 nM. The figure for B33 is 6.2 ± 0.4 nM.
